Assay results from patent US20210032313A1 (Daiichi Sankyo, published 2021).
Substitutions are numbered along the chain they refer to. One block for each binder: values may come before it.

Assays:
[1] = target: T1, human KLK5 (human, UniProt Q9Y337 67-293); assay: cell-based or functional assay
T1 sequence: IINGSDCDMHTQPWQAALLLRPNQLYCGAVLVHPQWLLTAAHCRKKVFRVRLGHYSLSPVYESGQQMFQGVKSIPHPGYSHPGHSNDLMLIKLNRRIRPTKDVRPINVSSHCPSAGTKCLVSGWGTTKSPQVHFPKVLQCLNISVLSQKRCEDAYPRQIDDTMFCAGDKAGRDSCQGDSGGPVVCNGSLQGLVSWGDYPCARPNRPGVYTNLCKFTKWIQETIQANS

[2] = target: T2, mouse KLK5 (mouse); assay: cell-based or functional assay
T2 chain: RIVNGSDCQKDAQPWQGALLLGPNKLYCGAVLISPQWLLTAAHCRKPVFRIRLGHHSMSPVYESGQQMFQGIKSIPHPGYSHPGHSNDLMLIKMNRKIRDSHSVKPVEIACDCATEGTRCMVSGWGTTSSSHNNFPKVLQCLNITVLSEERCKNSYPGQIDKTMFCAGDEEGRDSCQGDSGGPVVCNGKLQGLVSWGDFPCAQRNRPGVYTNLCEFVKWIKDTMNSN

[3] = target: mouse KLK7 (mouse, UniProt Q91VE3 26-249); assay: cell-based or functional assay
Sequence of mouse KLK7 (Q91VE3 26-249): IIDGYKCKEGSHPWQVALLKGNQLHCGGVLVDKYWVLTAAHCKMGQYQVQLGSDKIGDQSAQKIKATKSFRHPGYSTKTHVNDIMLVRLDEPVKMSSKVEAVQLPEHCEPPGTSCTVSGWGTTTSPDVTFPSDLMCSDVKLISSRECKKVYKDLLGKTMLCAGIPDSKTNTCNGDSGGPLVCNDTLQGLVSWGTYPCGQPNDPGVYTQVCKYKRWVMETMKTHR

[4] = target: T3, mouse KLK14 (mouse, UniProt Q8CGR5 24-250); assay: cell-based or functional assay
T3 sequence: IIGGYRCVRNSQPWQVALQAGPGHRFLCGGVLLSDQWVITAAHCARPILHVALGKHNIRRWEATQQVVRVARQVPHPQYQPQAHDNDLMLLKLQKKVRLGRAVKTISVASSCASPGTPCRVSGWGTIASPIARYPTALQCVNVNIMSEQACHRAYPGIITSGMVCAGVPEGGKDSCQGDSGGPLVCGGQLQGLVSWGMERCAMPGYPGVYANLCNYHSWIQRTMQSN

[5] = target: T4, Plasmin (human, UniProt P00747); assay: fluorogenic peptide substrate cleavage, 1 µM inhibitor
T4 construct: commercial enzyme (Sigma-Aldrich, P1867); 50 nM in the assay; substrate Boc-Val-Leu-Lys-MCA 100 µM; also called Human plasmin
T4 sequence (P00747 97-810 limits assumed): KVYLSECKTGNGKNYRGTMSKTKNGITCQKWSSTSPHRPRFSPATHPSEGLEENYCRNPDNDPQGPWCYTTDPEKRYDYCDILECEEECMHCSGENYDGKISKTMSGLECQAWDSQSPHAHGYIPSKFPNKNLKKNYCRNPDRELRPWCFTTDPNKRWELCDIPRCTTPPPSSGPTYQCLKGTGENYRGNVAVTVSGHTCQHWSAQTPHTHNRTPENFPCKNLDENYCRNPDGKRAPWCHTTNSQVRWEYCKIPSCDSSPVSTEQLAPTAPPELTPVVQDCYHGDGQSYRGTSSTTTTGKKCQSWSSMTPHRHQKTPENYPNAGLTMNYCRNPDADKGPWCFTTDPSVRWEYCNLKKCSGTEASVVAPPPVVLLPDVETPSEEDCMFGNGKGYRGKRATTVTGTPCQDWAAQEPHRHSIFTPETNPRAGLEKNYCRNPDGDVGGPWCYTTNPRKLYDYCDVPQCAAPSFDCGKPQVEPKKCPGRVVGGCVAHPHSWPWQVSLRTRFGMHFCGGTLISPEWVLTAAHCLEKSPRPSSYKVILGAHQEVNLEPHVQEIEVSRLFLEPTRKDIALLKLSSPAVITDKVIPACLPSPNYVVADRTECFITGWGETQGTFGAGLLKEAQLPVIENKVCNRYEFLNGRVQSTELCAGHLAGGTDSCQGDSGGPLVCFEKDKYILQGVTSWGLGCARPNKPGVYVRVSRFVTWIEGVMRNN
Protocol: FIG. 3C includes graphs to evaluate the cross-reactivity of each inhibitory peptide with proteases, using the degradation of a peptide substrate as an index. For evaluating the Human plasmin inhibitory activity, plasmin (Sigma-Aldrich Co. LLC, P1867) with a final concentration of 50 nM and a substrate peptide Boc-Val-Leu-Lys-MCA (PEPTIDE […], INC., 3104-v) with a final concentration of 100 μM were used. For evaluating the Human thrombin inhibitory activity, thrombin (Sigma-Aldrich Co. LLC, T6884) with a final concentration of 1 nM and a substrate peptide Boc-Val-Pro-Arg-AMC (R&D Systems, Inc., ES011) with a final concentration of 100 μM were used. For evaluating the Human neutrophil elastase inhibitory activity, neutrophil elastase (Enzo Life Sciences, BML-SE284) with a final concentration of 0.00001 U/μL and a substrate peptide Suc (OMe)-Ala-Ala-Pro-Val-MCA (PEPTIDE […], INC., 3153-v) with a final concentration of 100 μM were used.
The specificities for other proteases were evaluated using the degradation of a substrate peptide as an index. […] Thereafter, 50 μL of a substrate diluted with an assay buffer was added thereto, and the fluorescence signal was measured using Enspire (PerkinElmer). […]

[6] = target: T5, KLK4 (human, UniProt Q9Y5K2); assay: as above
T5 construct: commercial enzyme (R&D Systems, 1719-SE); 1 µg/mL in the assay; substrate Boc-Val-Pro-Arg-AMC 100 µM; also called Human KLK4; hKLK4
T5 sequence (Q9Y5K2 31-254 limits assumed): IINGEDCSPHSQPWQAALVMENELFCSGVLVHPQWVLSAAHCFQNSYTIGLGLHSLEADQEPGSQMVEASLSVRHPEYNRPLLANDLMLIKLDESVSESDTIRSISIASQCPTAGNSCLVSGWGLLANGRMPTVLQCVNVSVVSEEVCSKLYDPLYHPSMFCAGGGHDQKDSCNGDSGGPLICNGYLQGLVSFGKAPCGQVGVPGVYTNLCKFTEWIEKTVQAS
Protocol: FIG. 3F includes graphs to evaluate the cross-reactivity of each inhibitory peptide with proteases, using the degradation of a peptide substrate as an index. For evaluating the Human KLK1 inhibitory activity, hKLK1 (R&D Systems, Inc., 2337-SE) with a final concentration of 0.1 μg/mL and a substrate peptide Pro-Phe-Arg-MCA (PEPTIDE […], INC., 3096-v) with a final concentration of 100 μM were used. For evaluating the Human KLK2 inhibitory activity, hKLK2 (R&D Systems, Inc., 4104-SE) with a final concentration of 2 μg/mL and a substrate peptide Pro-Phe-Arg-MCA (PEPTIDE […], INC., 3096-v) with a final concentration of 100 μM were used. For evaluating the Human KLK4 inhibitory activity, hKLK4 (R&D Systems, Inc., 1719-SE) with a final concentration of 1 μg/mL and a substrate peptide Boc-Val-Pro-Arg-AMC (R&D Systems, Inc., ES011) with a final concentration of 100 μM were used.
(§1) The specificities for other proteases were evaluated using the degradation of a substrate peptide as an index. As in the method described in (3-1), 25 μL each of a protease and a sample diluted with an assay buffer were mixed (to a final concentration of sample of 1 μM), followed by a reaction at 37° C. for 20 minutes. Thereafter, 50 μL of a substrate diluted with an assay buffer was added thereto, and the fluorescence signal was measured using Enspire (PerkinElmer). An assay buffer (50 mM Tris, 150 mM NaCl, pH 8.0) was used for the evaluation of the protease activity, and a PROTEOSAVE® SS96F black plate (Sumitomo Bakelite Co., Ltd.) was used for the reaction and the measurement. The combinations of the protease and the substrate used for the evaluation of the specificity were as follows.

[7] = target: T1, human KLK5; assay: SPR, BIAcore T200; biotinylated KLK5 captured on chip, peptide as analyte; single cycle kinetics, 1:1 model
Protocol: In order to measure the binding affinity of the KLK5 inhibitory peptides, surface plasmon resonance analysis was conducted using BIAcore T 200 (GE healthcare). A complementary strand of DNA of a streptavidin conjugate was captured by hybridization on Sensor Chip CAP (GE healthcare) on which single-stranded DNA immobilized. Next, KLK5 biotinylated using EZ-Link NHS-PEG4-Biotin (Thermo Fisher Scientific) was captured at a flow rate of 10 μL/min to immobilize about 10 RU. Thereafter, the KLK5 inhibitory peptide, serially diluted 2-fold with HBS-EP (0.625 to 10 nM), was added thereto as an analyte at a flow rate of 30 μL/min. In the BIAcore T 200 Evaluation software (version 2.0), kon and koff were calculated by analysis using Single cycle kinetics in a simple one-to-one Langmuir binding model. The dissociation constant KD was calculated as a ratio of koff/kₒₙ. Further, multiple KLK5 inhibitory peptides were measured by regenerating Sensor Chip CAP using a Regeneration buffer attached to a Biotin CAPture Kit (GE healthcare) and repeatedly capturing biotinylated KLK5.

[8] = target: human KLK7 (human, UniProt P49862 30-253); assay: cell-based or functional assay
Sequence of human KLK7 (P49862 30-253): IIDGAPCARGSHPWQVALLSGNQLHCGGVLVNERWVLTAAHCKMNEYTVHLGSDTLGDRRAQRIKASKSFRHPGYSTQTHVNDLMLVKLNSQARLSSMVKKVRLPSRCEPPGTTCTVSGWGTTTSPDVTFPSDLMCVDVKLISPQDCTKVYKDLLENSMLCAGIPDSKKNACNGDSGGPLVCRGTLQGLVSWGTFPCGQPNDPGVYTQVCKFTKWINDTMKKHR

[9] = target: T6, human KLK14 (human, UniProt Q9P0G3 25-251); assay: cell-based or functional assay
T6 sequence: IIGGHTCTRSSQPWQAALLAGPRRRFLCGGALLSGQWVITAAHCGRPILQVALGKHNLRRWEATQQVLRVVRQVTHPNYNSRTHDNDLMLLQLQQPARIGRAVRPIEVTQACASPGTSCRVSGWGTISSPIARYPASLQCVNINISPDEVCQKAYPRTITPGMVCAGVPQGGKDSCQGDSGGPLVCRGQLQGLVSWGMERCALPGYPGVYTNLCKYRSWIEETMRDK

[10] = target: bChymotrypsin; assay: fluorogenic peptide substrate cleavage, 1 µM inhibitor
Protocol: FIG. 3A includes graphs to evaluate the cross-reactivity of each inhibitory peptide with proteases, using the degradation of a peptide substrate as an index. For evaluating the Bovine trypsin inhibitory activity, trypsin (Pierce, 20233) with a final concentration of 5 nM and a substrate peptide Boc-Val-Pro-Arg-AMC (R&D Systems, Inc., ES011) with a final concentration of 100 μM were used. For evaluating the Human trypsin inhibitory activity, trypsin (Sigma-Aldrich Co. LLC, T6424) with a final concentration of 1 nM and a substrate peptide Boc-Val-Pro-Arg-AMC (R&D Systems, Inc., ES011) with a final concentration of 100 μM were used. For evaluating the Bovine α-chymotrypsin inhibitory activity, chymotrypsin (Worthington Biochemical Corporation, LS001434) with a final concentration of 10 nM and a substrate peptide Suc-Leu-Leu-Val-Tyr-MCA (PEPTIDE […], INC., 3120-v) with a final concentration of 100 μM were used.
as §1

[11] = target: T7, KLK8 (human, UniProt O60259); assay: as above
T7 construct: prepared by the inventors; 5 nM in the assay; substrate Boc-Val-Pro-Arg-AMC 100 µM; also called Human KLK8; hKLK8
T7 sequence (protease, looked up): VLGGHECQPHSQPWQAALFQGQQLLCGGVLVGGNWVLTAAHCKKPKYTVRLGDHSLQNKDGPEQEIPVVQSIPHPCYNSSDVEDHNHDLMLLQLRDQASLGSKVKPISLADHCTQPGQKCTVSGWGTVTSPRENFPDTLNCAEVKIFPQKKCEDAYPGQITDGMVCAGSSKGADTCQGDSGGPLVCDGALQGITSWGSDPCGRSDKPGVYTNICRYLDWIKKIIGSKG
Protocol: FIG. 3G includes graphs to evaluate the cross-reactivity of each inhibitory peptide with proteases, using the degradation of a peptide substrate as an index. For evaluating the Human KLK7 inhibitory activity, hKLK7 with a final concentration of 1 μg/mL and a substrate peptide Mca-Arg-Pro-Lys-Pro-Val-Glu-Nval-Trp-Arg-Lys (Dnp)-NH₂ (R&D Systems, Inc., ES002) with a final concentration of 20 μM were used. For evaluating the Human KLK8 inhibitory activity, hKLK8 (UniProt: 060259, prepared by the inventors) with a final concentration of 5 nM and a substrate peptide Boc-Val-Pro-Arg-AMC (R&D Systems, Inc., ES011) with a final concentration of 100 μM were used. For evaluating the Human KLK12 inhibitory activity, hKLK12 (R&D Systems, Inc., 3095-SE) with a final concentration of 0.1 μg/mL and a substrate peptide Boc-Val-Pro-Arg-AMC (R&D Systems, Inc., ES011) with a final concentration of 100 μM were used.
as §1

IC50(nM) for hKLK5 [1]: 6.4 nM
IC50(nM) for mKLK5 [2]: 54 nM
IC50(nM) for mKLK7 [3]: > 1000 nM
IC50(nM) for mKLK14 [4]: > 1000 nM
binding result [5]: binds
binding result [6]: binds
Kd [7]: 0.068 nM
koff [7]: 3.5e-05 s⁻¹
kon [7]: 520000 M⁻¹ s⁻¹
B1: KLK5 inhibitory peptide K51034 (peptide)
chain: GPQFGLFSKYRTPNCGRYTTGGCNKEYEPVCGSDMSTYANECTLCMKIREGGHNIKIIRNGPCGG
notes: SPINK2 mutant peptide made in E. coli

IC50(nM) for hKLK5 [1]: 12 nM
IC50(nM) for hKLK7 [8]: 24 nM
IC50(nM) for hKLK14 [9]: > 1000 nM
IC50(nM) for mKLK5 [2]: 149 nM
IC50(nM) for mKLK7 [3]: 27 nM
IC50(nM) for mKLK14 [4]: 437 nM
binding result [10]: binds
Kd [7]: 0.26 nM
koff [7]: 0.0015 s⁻¹
kon [7]: 6e+06 M⁻¹ s⁻¹
B2: KLK5/KLK7 inhibitory peptide K51057 (peptide)
chain: B1 chain with R17T, Y18M, T19Q, T20G, G21S, N24T, K25Y, E26H
notes: as for B1

IC50(nM) for hKLK5 [1]: 7.5 nM
IC50(nM) for hKLK14 [9]: 499 nM
IC50(nM) for mKLK5 [2]: 10 nM
IC50(nM) for mKLK7 [3]: > 1000 nM
IC50(nM) for mKLK14 [4]: > 1000 nM
binding result [6]: binds
binding result [11]: binds
Kd [7]: 0.0025 nM
koff [7]: 2.9e-06 s⁻¹
kon [7]: 1.2e+06 M⁻¹ s⁻¹
B3: KLK5 inhibitory peptide K50062 (peptide)
chain: GPQFGLFSKYRTPNCQQYRELGCGRQYDPVCGSDMSTYANECTLCMKIREGGHNIKIIRNGPCGG
notes: as for B1
